The record followed here is the supplement of paper PMC11502859.
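Note: lentiviral eGFP-IRES-mCherry reporter pool sorted by FACS 96 h post-transduction, gated on mCherry-high cells, Illumina read counts normalized per million, median across four biological replicates.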

Chain of RBP1 (chain, as listed by the source): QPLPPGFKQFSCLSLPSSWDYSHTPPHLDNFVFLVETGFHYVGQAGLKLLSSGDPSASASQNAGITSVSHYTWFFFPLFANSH

The series concerns HEK293T. Put plainly: median enrichment of reporter reads in eGFP-reduced (low/intermediate) vs eGFP-high sorted cells (eGFP-extension fusion abundance) (ratio); higher = stronger loss of eGFP-fusion protein abundance (more destabilising extension).
In the case of QRLQCLLRRKIKFTSSKVTLEDRALGMSFFF [OR2C3], the median enrichment amounted to 5.9.

In the case of “QRPLPGPSPAPRAPRPGPGARQTPACAPAERRLETGATASRVQQHSRHGSGRDSAWPRGTFPGQGPGGNWHGLVPLLCCILIP [ANKRD13B]”, the median enrichment came to 7.68.

With “QRPVLVSHPCHSRSLPVPLLPKMPWLDWTPSPHDHASDCHPLPVPKSMCTPLTTGTAPPNHRHQATI [PTPRCAP]”, the median enrichment came to 8.88.

As for QRQ [GNB1], the median enrichment is 0.344.

Take “QRRERCASILEGQQEAELFCLDSHHGPFAENCLGFQQLHICICEL [TAFA4]”: the median enrichment stood at 18.2.

Take QRRQMQTKAT [TWSG1]: the median enrichment was found to be 0.373.

“QRTTEHLVSQNGLTTVSTTYSQMSISTSVELK [CYLC1]”: the median enrichment came out at 1.57.

Consider QSCSIHIGLMD [ZCCHC10], for which the median enrichment came to 0.408.

As to QSFTSKFYLLCLPLLSRRSCLLPGSLTCSLS [LRRC1], the median enrichment came to 18.

Take QSIQQSLIRHAKI [SDHAF3]: the median enrichment came to 4.37.

Regarding “QSKQGRNVQVNNKSPHTLLTPWRQLLFRSFICLLQESFLPLT [SIRPD]”, the median enrichment worked out at 4.67.

On to QSMF [TMEM196], for which the median enrichment is 0.507.

Regarding QSPSAARKCWSWSKIGFFKIFLVIREYI [PSD3], the median enrichment amounted to 7.26.

As for “QSPSVLPLSPLSPWPVVVPQPLPPSTSSVSPSPRLINLLIDCDSK [ERGIC3]”, the median enrichment amounted to 9.24.

For the substance QSQEPSSLI [CNDP1], the median enrichment is 0.195.

Turning to “QSQPQLMPSQSQPPVTPSQSQPRVTPSQSQPHVTPYRSKSGKQKQSVPIPKTVSRKGTLKK [ADAM29]”, the median enrichment amounted to 0.14.

As to QSSAQRRGSMC [FAM49A], the median enrichment came to 0.176.

For the substance QSSF [PCNX4], the median enrichment stood at 0.571.

On to QSSLSR [SCAF8], for which the median enrichment was 1.11.

For QSSQSSARP [SNX32], the median enrichment is 0.324.

In the case of QSSYPLEEDCFQII [KDSR], the median enrichment was determined as 0.764.

As for QSTF [ST8SIA4], the median enrichment was 0.477.

For the substance “QSTGRKCFWTEVVAVEGVASSCRQTIILEILVEVPSPIRHSNMSTNALKWN [EPHA3]”, the median enrichment turned out to be 14.9.

As to “QSTLTYFQKYNFRYHANFMTSKGCCYNVLTER [TDGF1]”, the median enrichment was determined as 6.46.

Take QSTTALSS [GALNT4]: the median enrichment came out at 0.487.

For QSVISFICCINV [LRP1B], the median enrichment worked out at 11.7.

Turning to QSWWPQPLASDTLYLKNNCAL [CALB1], the median enrichment was 5.97.

Regarding QSYHSGC [USP32], the median enrichment was determined as 0.623.

Take QTA [FMR1]: the median enrichment was 0.337.

For the substance QTAKKEKLN [PTMA], the median enrichment turned out to be 0.399.

Turning to QTFCSYRLKYLLPIRFFCDMCLPAVN [CCDC59], the median enrichment came to 6.05.

“QTGFLSSLKRLLCLRKSICCVSLASGSRTDLQLPNWILLPRSCSEVSFYHSAL [HLA-DPB1]”: the median enrichment is 7.45.

Take QTGHPTHLHAKILPASSLRVPW [UBL4B]: the median enrichment stood at 4.81.

As to QTGQDPSTCTC [FCN1], the median enrichment was determined as 0.258.

Consider QTGRLDF [RPL24], for which the median enrichment turned out to be 0.466.

Take QTGWPGPNP [EMILIN3]: the median enrichment was determined as 0.352.

Turning to QTHGTDSLGN [DPF3], the median enrichment is 0.444.

As to QTLCALCVRPVPAS [USP10], the median enrichment was determined as 7.74.

In the case of QTLGNSISCIFDQIVTSFCI [RAB18], the median enrichment was found to be 5.83.

Take QTLPFLFEFFRGKG [PCBD1]: the median enrichment was found to be 2.9.

QTSLHFILF [FABP1]: the median enrichment was 24.1.

For the substance QTTFPKENIRGFHC [CPVL], the median enrichment was 0.323.

In the case of “QTVEWLKLLSRRIYTSDLRRETLTPQWLHLL [HIST1H2BJ]”, the median enrichment is 10.5.

In the case of QTVKEGVFVWTR [DSC1], the median enrichment was 2.42.

Take “QVFGKQQRASPLPGGLPCRFWASFPCLSLFRCAFHL [MAP2K1]”: the median enrichment was found to be 13.2.

For the substance QVISQSIYVLSNM [PSMA1], the median enrichment came to 7.19.

Take QVLSPNNFFLSEVKGLKISWK [ENOSF1]: the median enrichment is 10.9.

Turning to QVNANSIVEPGV [PRKCB], the median enrichment was found to be 0.284.

For the substance QVPFPLLNIKLNSI [NSMAF], the median enrichment was 2.85.

Regarding “QVRLVQEHKLPPSPSPPPPGPGLKQPEDSPRGWLSPAAGSAFTWGGGAGLTLNPPPRQVGEGSHHSKCL [SLC2A4RG]”, the median enrichment was 2.26.

“QVTGNLSHLPFSSGTTLHKCVPRGSPFLSSSTENAARSSYPSSRGPAAMLYAPEGTLVPRKERKKRDGLWLHFLGP [VAMP8]”: the median enrichment was 7.27.

In the case of QVVHIYGIWYEILICVYNT [ZNF230], the median enrichment worked out at 47.2.

Turning to QWLSGSMC [LYPD6], the median enrichment is 0.958.

Turning to “QWPHPHWAQARRGPAHAHTTGQGCGAGAIPAPFPGPRGLGSLPSHPGLVPPGAPTVEIRRGWNGGRGGAGGPHPSAALGLGPH [GNB2]”, the median enrichment turned out to be 7.88.

In the case of QWPSDDS [COL15A1], the median enrichment was 0.307.

For the substance “QWRGEGRLGALGGWEMLASKRLTGREAGTCPQHKRQVYPGSL [BTBD18]”, the median enrichment amounted to 8.86.

In the case of QWSWLRVGEGTWA [RTP2], the median enrichment was 2.67.

For the substance “QYLTGHHRILWIFFPSFWFWFRANSCFIGTVYEAFETKNNEE [GALC]”, the median enrichment turned out to be 6.16.

In the case of QYNF [PPP1R42], the median enrichment came out at 0.505.

In the case of QYT [ZMYM5], the median enrichment was determined as 0.736.

In the case of QYTF [PNISR], the median enrichment worked out at 1.03.

On to “RAALLSSQAAPVPSPSTLEWSSSACFPSHRPATTPTMCRKHCLTIPHPPDNSQGWSPGHFQLLLSPCIVSLLCFFSLPPLLFL [RAB15]”, for which the median enrichment stood at 7.07.

On to RAAPPSGQKLK [ALG1L], for which the median enrichment worked out at 0.251.

As to RAAQKETTKPLTVVTLDKETPVA [CAPRIN2], the median enrichment stood at 45.5.

On to “RACGAAGAGEASRGRVLRQELDSPTLLSSRQGPGSHILLTLERLELTPLDGKCISEKGKAAWGSPI [SLC1A7]”, for which the median enrichment was found to be 9.89.

Take “RACQEVTTSLLPAAWARTALRFEGNMDPFGPAGTGHIPHPRATMGVGNFLVCFLIYL [PLEKHH3]”: the median enrichment was 8.55.

As to RAETSALLTLRDTTRLHGEV [CORO2A], the median enrichment amounted to 6.49.

Consider “RAGPAPCPRSPLLSRPHPPPARPTRGATPPFESLAVGWTLPFPEAA [C1QL4]”, for which the median enrichment worked out at 13.1.

On to “RAGVCWHRQPPLWALGGPLKGSPTRGPDESFLSGVGSQRGSPPAAWGRAWPGRVIQRVCQPLTGSPSVAATRSTELLQPRGQL [FAM53B]”, for which the median enrichment stood at 6.39.

Regarding RAHELRL [TNFAIP8], the median enrichment amounted to 0.408.

As for “RAKPDGQHRHRHTPQGPTLLSFTVPWHIGERIYPSPGSPGHSVLSKTRMWYQLWKRKVSCQQYLLPSRQPSQVRHLLRSHREP [SPSB4]”, the median enrichment came out at 7.24.

On to “RALLAPAFHALPIPPPPPPPPATEGRPEPPSLPSPLGGRGGHWKGGTPPPQQLRRGFWN [TOMM40]”, for which the median enrichment came to 0.777.

As to RALLERLLCHPFAPERGSSQLS [DNPEP], the median enrichment is 9.53.

“RALVPWQRDEKLQALSPAWAGSGARGCDSSRRVETLGWTGGGQRPAGGAPGMCPDMVNL [VAV1]”: the median enrichment is 1.76.

In the case of RAMPSLCAVKLSMHYILLAPLQVNAKSQLG [CDC14A], the median enrichment was 7.49.

As to RAPAVIIQHDAA [PLXNA1], the median enrichment stood at 5.99.

As for RAPPLTEAAPPTAPNKNVKTNPRT [NDUFA3], the median enrichment amounted to 0.588.

Take “RAPTLQPQTLCTPRCDAGRGPPPGRTDCRSWEPRHAQASAEGAAGGSARLDPWHLIKKFSLMSMVVGQPSSLSQQAHAASVTS [ZFPM1]”: the median enrichment was found to be 2.21.

Consider “RAPVGKGGGLRGRGWMPRAPKPPFPFVSKGVRSELRKRASECVSLEGLGALWCYHLETCLMPPCLPMEDRLQELGPCGNLACF [MTA2]”, for which the median enrichment was determined as 5.52.

For “RAPVWMLLPRLQTTGSFPCPNPRRSFLEGSWALGTCVSCAYHRPRPPWISWIGVGE [TXNRD1]”, the median enrichment came to 10.1.

As to RAPWWERL [HTT], the median enrichment was 1.54.

Regarding RAQLLRAQTPA [TNK1], the median enrichment is 1.82.

As for RARCPSPS [PTH2], the median enrichment turned out to be 2.74.

As for RAS [ABCF2], the median enrichment came out at 0.408.

For the substance “RASPAHCQGRRGPDQGPRGLRAPPLSPPQCLRGPEPPPVPAAPLPQGPAMPHPGLKFCKVLRGPEHVSATRGSGQHCVLRLVS [SLC29A4]”, the median enrichment was found to be 8.55.

As for RASSFS [KLHL10], the median enrichment was 0.821.

For RASVGG [MDFI], the median enrichment came to 9.54.

For the substance “RAWLPACTPPLPPHESPPAGYRGRHAPGASPALGTTCLPAPPGPGPPAAPHFRRGLEQGEAGLWGAVREIYWGPQILL [ECEL1]”, the median enrichment was 4.03.

In the case of “RAWVLTPGRATLSDLKMRILGTGCLSPQQNQNESLKAQDSAFATLPLSWYRRWM [ZNF410]”, the median enrichment was 8.88.

Regarding RBP1, the median enrichment worked out at 6.79.

As for “RCAGSFLPSVKGQRCADLIFQLTTCFKRKIAHEKCLLAFQSIFEITG [FAM104A]”, the median enrichment worked out at 5.07.

On to RCCCHGGLGQRGERSVLEA [OBSCN], for which the median enrichment came to 11.1.

In the case of “RCDQVALGRDPRVFMRHLKLIKELRLELIWCSP [KCNC2]”, the median enrichment came to 10.9.

On to RCFRRLFFSSRSCHLIILH [COMMD10], for which the median enrichment was 7.76.

Turning to “RCKPPYESTVADRRRGGCCSCRSINMCCMSFLLFF [LMO7]”, the median enrichment worked out at 22.4.

For RCLELCCCQHDLFGA [TPH2], the median enrichment amounted to 5.32.

For “RCLPRAVDARAPVHTHTSTLTSPQCCASSTRFYSSQNCILNAQETFKLFMKRCVYREEEGANAVRIMFRL [UBE2QL1]”, the median enrichment was determined as 11.9.

Consider RCPCHLPSVHPESSQ [PPFIBP2], for which the median enrichment stood at 0.445.

Turning to RCPGDVTDSWQSHGPRLPKSVCWQLFP [S100P], the median enrichment came out at 8.26.

Take RCRVFSSFFLLQEFVVT [MMP16]: the median enrichment was determined as 3.48.

Turning to RCTKDLLF [GNA13], the median enrichment stood at 1.38.

As for RCVHSISEETTHRSFFSLF [GIPC2], the median enrichment came out at 8.59.

Regarding “RDALAMAQEKPARKNQTDFHTKEEASIFFFLFFIGVVTKPFRLLLFKI [QRICH1]”, the median enrichment stood at 33.
